Source: IntAct's records for PubMed 22334672

B1: mRNA export factor (Human herpesvirus 1 (strain 17) (HHV-1)), P10238 (parent)
chain: MATDIDMLIDLGLDLSDSDLDEDPPEPAESRRDDLESDSSGECSSSDEDMEDPHGEDGPEPILDAARPAVRPSRPEDPGVPSTQTPRPTERQGPNDPQPAPHSVWSRLGARRPSCSPEQHGGKVARLQPPPTKAQPARGGRRGRRRGRGRGGPGAADGLSDPRRRAPRTNRNPGGPRPGAGWTDGPGAPHGEAWRGSEQPDPPGGQRTRGVRQAPPPLMTLAIAPPPADPRAPAPERKAPAADTIDATTRLVLRSISERAAVDRISESFGRSAQVMHDPFGGQPFPAANSPWAPVLAGQGGPFDAETRRVSWETLVAHGPSLYRTFAGNPRAASTAKAMRDCVLRQENFIEALASADETLAWCKMCIHHNLPLRPQDPIIGTTAAVLDNLATRLRPFLQCYLKARGLCGLDELCSRRRLADIKDIASFVFVILARLANRVERGVAEIDYATLGVGVGEKMHFYLPGACMAGLIEILDTHRQECSSRVCELTASHIVAPPYVHGKYFYCNSLF
partner: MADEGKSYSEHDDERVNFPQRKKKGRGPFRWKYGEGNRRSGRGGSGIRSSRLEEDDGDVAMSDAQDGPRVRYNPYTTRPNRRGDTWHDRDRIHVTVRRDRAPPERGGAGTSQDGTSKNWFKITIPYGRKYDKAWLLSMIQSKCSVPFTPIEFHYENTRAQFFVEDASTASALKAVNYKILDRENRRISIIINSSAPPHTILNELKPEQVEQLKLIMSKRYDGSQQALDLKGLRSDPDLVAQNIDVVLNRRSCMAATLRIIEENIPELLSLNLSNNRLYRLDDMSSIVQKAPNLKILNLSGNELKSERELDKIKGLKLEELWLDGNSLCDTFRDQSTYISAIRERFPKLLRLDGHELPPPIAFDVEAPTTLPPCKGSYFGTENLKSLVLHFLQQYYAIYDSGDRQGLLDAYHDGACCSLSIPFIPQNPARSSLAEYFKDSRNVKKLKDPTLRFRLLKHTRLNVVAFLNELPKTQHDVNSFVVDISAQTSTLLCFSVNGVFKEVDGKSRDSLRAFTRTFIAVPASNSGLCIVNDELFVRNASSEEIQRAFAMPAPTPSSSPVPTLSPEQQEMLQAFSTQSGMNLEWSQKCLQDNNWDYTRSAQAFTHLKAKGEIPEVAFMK

Variants of: B1
Details: with nxf1_human NXF1, Q9UBU9

Question: How did the “effect of a mutation on the interaction” value turn out when P465L;G466E was run?
Answer: The value was “disrupting interaction”.
